Measurements from US10174359.

Assays:
[1] = target: cyclin B1-cdk1 complex (UniProt P14635)
[2] = test system: separase sensor, wild-type Scc1 (142-467), histone H2B localization-targeting sequence

Chain of cyclin B1-cdk1 complex (P14635 whole entry, looked up, one chain of several): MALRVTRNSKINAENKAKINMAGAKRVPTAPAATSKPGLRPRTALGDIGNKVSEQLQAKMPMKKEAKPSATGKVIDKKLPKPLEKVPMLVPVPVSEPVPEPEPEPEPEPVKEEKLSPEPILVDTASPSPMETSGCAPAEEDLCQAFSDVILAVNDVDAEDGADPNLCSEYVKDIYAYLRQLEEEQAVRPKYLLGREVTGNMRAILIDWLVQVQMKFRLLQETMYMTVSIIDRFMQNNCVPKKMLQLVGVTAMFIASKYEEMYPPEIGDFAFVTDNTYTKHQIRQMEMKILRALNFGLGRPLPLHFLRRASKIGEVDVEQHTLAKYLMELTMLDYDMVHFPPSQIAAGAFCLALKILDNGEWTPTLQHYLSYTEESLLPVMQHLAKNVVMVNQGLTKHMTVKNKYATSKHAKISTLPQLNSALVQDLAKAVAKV

Substance | cdk1 activity (histone H1 kinase assay) [1] | kinase activity (histone H1 as a substrate) [1] | cleavage of the sensor (immunoblot with anti-GFP antibody, FIG. 2D) [2]
myc-tagged mouse separase, wild-type (WT) | cdk1 activity was markedly inhibited in the separase-bound fraction | in the separase-bound fraction, kinase activity is inhibited (separase-bound cyclin B1-cdk1) | 
separase |  |  | The separase sensor localized in chromosome in the cells in anaphase is cleaved
